In patent US20140271646A1 (UNITED STATES OF AMERICA AS REPRESENTED BY THE SECRETARY …, published 2014):

Experiments:
human IGF-II [1] = target: T1, human IGF-II (human, UniProt P01344 25-91); assay: ELISA, Fab on hIGF-II
T1 construct: mature; It was biotinylated for the flow cytometry assays; also called hIGF-II; insulin-like growth factor II

human IGF-II [2] = target: T1, human IGF-II; assay: ELISA on hIGF-II
Experimental: (§1) ELISA was performed as described previously (Chen et al., 2008, supra). Bound Fabs and eAds were detected by HRP-conjugated mouse anti-FLAG tag antibody. The antibody-Fc fusion proteins binding to IGF-II directly coated on 96-well plates were detected by HRP-conjugated goat anti-human IgG (Fc-specific) antibody. […] The half-maximal binding (EC₅₀) was calculated by fitting the data to the Langmuir adsorption isotherm.

mouse IGF-II = target: T2, mouse IGF-II (mouse, UniProt P09535 25-91); assay: ELISA-based competition assay
T2 construct: also called mIGF-II
T2 sequence (P09535 25-91 limits assumed): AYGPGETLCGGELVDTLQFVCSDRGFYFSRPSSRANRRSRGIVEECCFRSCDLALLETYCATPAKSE

human IGF-II [3] = target: T1, human IGF-II; assay: phage library panned on hIGF-II, semELISA screening
Experimental: The PCR products were gel-purified, digested with SfiI, and gel-purified again. The purified fragments were then cloned into pComb3X linearized by SfiI. A phage library was prepared by electroporation of Escherichia coli (E. coli) strain TG1 electroporation-competent cells (Stratagene, La Jolla, Calif.) with desalted and concentrated ligation, as described previously (Chen et al., 2008, J Mol Biol 382:779-89).

human IGF-II [4] = target: T1, human IGF-II; assay: ELISA, eAd on hIGF-II
Experimental: as §1

human IGF-II [5] = target: T1, human IGF-II; assay: SPR, Biacore X100, antibody amine-coupled to a CM5 chip, hIGF-II as analyte, monovalent binding model
Experimental: ELISA was performed by coating IGF-II on 96-well plates. Bound antibodies were detected by HRP-conjugated goat anti-human IgG (Fc-specific) antibody. SPR analysis was performed on Biacore X100 by according to the manufacturer's instructions.
The binding kinetics of the antibodies was assessed by SPR analysis on Biacore X100 (GE Healthcare) according to the manufacturer's instructions. Briefly, antibodies were diluted in sodium acetate (pH 5.0) and immobilized directly onto a CM5 sensor chip with standard amine coupling method. The reference cell was injected with N-hydroxysuccinimide/1-ethyl-3-(3-dimethyaminopropy) carbodiimide and ethanolamine without injection of IGF-II. IGF-II was diluted with running buffer HBS-EP (100 mM HEPES, pH 7.4, 1.5 M NaCl, 30 mM EDTA, 0.5% surfactant 20). […] The kinetic constants were calculated from the sensorgrams fitted with the monovalent binding model of the BiacoreX100 Evaluation software 2.0.

human IGF-II [6] = target: T1, human IGF-II; assay: ELISA, hIGF-II coated on the plate
Experimental: The half-maximal binding (EC₅₀) was calculated by fitting the data to the Langmuir adsorption isotherm.
as §1

T1 sequence (P01344 25-91): as the sequence (P09535 25-91 limits assumed) above, with G3R, G5S, S22G, S32A, A35V, N36S counted along it

B1: Fab m610.27 (Fab, V domains shown)
VH: QVQLVQSGAEVKKPGASVKVSCKASGYTFTSYYMHWVRQAPGQGLEWMGIINPSGGSTSYAQKFQGRVTMTRDTSTSTVYMELSRLRSDDTAVYYCARDVQWLAYGMDVWGQGTTVTVSS
VL: DIQMTQSPSSLSASVGDRVTITCRASQSISSYLNWYQQKPGRAPDLLINAASSLQSGVPSRFSGSGSGTDFTLTISSLQPEDFATYFCQQSYSLPFTFGGGTKVEIKG
notes: Human Fab expressed in E. coli HB2151; also called m610.27 in Fab format
B1 was tested. Which EC50 (human IGF-II [1]) did it give?
The EC50 was 5 nM.

B2: m610 (Fab, V domains shown)
VH: QVQLVQSGAEVKKPGASVKVSCKASGYTFTSYYMHWVRQAPGQGLEWMGIINPSGGSTSYAQKFQGRVTMTRDTSTSTVYMELSRLRSDDTAVYYCARDVQWLAYGMDVWGQGTTVTVSS
VL: not shown
notes: also called Fab m610
Which EC50 (human IGF-II [2]) does the source give for B2 here?
The EC50 was 20 nM.

Does B2 bind (mouse IGF-II)?
Result: binds

B3: eAd m630.9 (VHH)
VHH: QVQLVQSGGGLVQPGGSLRLSCAASSFDFDYYEMSWVRQAPGQRLEWVAYISKSGGTKMYADSVKGRFTISRDNSKNTLYLQMNTLRAEDTAMYYCAKDRATCSGGRCYSFYYGMDVWGQGTLVTVSS
notes: Mutant of m630 selected from the random mutagenesis library panned on hIGF-II; not shown: C-terminal hexahistidine tag, and a FLAG tag used for detection
Does B3 bind (human IGF-II [3])?
Result: binds

B4: eAd m630.1 (VHH)
VHH: QVQLVQSGGGLVQPGGSLRLSCAASSFDFDYYEMSWVRQAPGQRLEWVAYISKSGGTKMYADSVKGRFTISRDNSRNTLYLQMNTLRAEDTAMYYCAKDRATCRGGSCYSFYHGMDVWGQGTLVTVSS
notes: as for B3
Does B4 bind (human IGF-II [3])?
Result: binds

B5: eAd m630.4 (VHH)
VHH: QVQLVQSGGGLVQPGGSLRLSCAASSFDFGYYEMSWVRQAPGQRLEWVAYISKSGGTKMYADSVKGRFTISRDNSKNTLYLQMNTLRAEDTAMYYCAKDRATCSGGRCYSFYYGMDVWGQGTLVTVSS
notes: as for B3
Does B5 bind (human IGF-II [3])?
Result: binds

B6: eAd m630.3 (VHH)
VHH: QVQLVQSGGGLVQPGGSLRLSCAASSFDFDYYEMSWVRQAPGQRLEWVAYISKSGGTKMYADSVKGRFTISRDNSKNTLYLQMNTLRAEDTAMYYCAKDRATCRGGRCYSFYYGMDVWGQGTLVTVSS
notes: not shown: C-terminal hexahistidine tag, and a FLAG tag used for detection
Which EC50 (human IGF-II [4]) does the source give for B6 here?
The EC50 was 2 nM.

And the “fold lower EC50 than m630” value (human IGF-II [4])?
The value was 25 fold.

B7: eAd m630 (VHH)
VHH: QVQLVQSGGGLVQPGGSLRLSCAASSFDFDYYEMSWVRQAPGQRLEWVAYISKSGGTKMYADSVKGRFTISRDNSKNTLYLQMNTLRAEDTAMYYCAKDRATCSGGSCYSFYYGMDVWGQGTLVTVSS
notes: Human engineered antibody domain (a single VH domain) expressed in E. coli HB2151; not shown: C-terminal hexahistidine tag, and a FLAG tag used for detection
B7 was tested. Which EC50 (human IGF-II [4]) did it give?
The EC50 was 50 nM.

Does B7 bind (mouse IGF-II)?
Result: binds

B8: m660 (bispecific antibody, human IgG1, kappa)
heavy: not shown
light: QVQLVQSGGGLVQPGGSLRLSCAASSFDFDYYEMSWVRQAPGQRLEWVAYISKSGGTKMYADSVKGRFTISRDNSKNTLYLQMNTLRAEDTAMYYCAKDRATCRGGRCYSFYYGMDVWGQGTLVTVSSGGGGSGGGGSGGGGSRTVAAPSVFIFPPSDEQLKSGTASVVCLLNNFYPREAKVQWKVDNALQSGNSQESVTEQDSKDSTYSLSSTLTLSKADYEKHKVYACEVTHQGLSSPVTKSFNRGEC
notes: Produced in 293 free style cells; also called bispecific antibody m660
How did the Kd (human IGF-II [5]) turn out when B8 was run?
Its Kd is 0.136 nM.

What about the “fold lower EC50 than IgG1 m610.7” value (human IGF-II [6]) of the same binder?
The value was 3 fold.
